Results reported in publication PMC12218379 (Scientific Reports, 2025).

Target: the molecule itself
Experiment: SEC-MALS

B1: SsRidA (SSA_0809), reactive intermediate deaminase A homolog from Streptococcus sanguinis (enzyme, UniProt A3CM35 1-126, looked up)
chain: MAKTIHTDKAPAAIGPYVQGKIVGNLLFASGQIPLSPETGEIIGTTIEEQTQQVLKNVSAILEAAGTDFDHVVKATCFLSDINDFVAFNEVYKTAFTEAFPARSAVEVARLPKDVKIEIEVIAEIL
  stoichiometry N: 3
